Results reported in US20190077860A1 (EISAI R AND D MANAGEMENT, published 2019).
Where a chain is given by its changes, count along the chain named. Names and notes keep the numbering of the source. Each block holds one binder with its values, some of them ahead of it.

Assays:
[1] = target: T1, human EphA7 extracellular region-SEAP-His protein (human, UniProt Q15375 28-555); assay: ELISA
T1 construct: extracellular domain; also called hEphA7-SEAP-His
T1 sequence (looked up): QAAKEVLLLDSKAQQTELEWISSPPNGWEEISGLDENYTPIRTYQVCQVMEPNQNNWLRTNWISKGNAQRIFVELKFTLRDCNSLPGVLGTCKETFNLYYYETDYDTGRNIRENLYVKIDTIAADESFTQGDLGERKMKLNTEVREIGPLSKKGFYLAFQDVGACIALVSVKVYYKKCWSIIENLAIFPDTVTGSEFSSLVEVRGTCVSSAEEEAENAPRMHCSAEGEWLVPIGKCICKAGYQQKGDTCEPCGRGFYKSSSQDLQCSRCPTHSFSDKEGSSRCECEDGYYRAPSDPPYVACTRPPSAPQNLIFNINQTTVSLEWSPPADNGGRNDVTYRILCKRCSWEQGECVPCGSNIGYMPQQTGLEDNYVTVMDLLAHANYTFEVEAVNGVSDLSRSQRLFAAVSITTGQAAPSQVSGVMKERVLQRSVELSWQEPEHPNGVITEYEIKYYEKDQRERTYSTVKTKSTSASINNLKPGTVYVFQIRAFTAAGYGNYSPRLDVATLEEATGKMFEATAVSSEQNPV

[2] = target: T2, human EphB4 extracellular region-SEAP-His protein (human, UniProt P54760 16-539); assay: ELISA
T2 construct: extracellular domain; also called hEphB4-SEAP-His
T2 sequence (looked up): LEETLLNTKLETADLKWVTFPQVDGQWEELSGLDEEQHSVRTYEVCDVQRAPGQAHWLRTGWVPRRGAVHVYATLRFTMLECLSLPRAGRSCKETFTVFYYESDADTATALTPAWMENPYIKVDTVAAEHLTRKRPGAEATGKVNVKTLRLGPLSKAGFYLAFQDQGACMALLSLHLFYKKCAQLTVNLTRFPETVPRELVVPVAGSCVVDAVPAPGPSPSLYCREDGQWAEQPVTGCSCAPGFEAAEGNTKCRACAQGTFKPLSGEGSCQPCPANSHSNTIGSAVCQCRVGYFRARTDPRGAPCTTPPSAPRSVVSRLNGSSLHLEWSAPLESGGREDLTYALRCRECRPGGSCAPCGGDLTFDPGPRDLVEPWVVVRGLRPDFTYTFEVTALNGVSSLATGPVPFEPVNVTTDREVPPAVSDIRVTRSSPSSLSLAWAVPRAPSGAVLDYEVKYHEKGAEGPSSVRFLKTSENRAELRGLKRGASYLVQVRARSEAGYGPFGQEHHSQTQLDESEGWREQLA

A450 as % of hEphA4-SEAP-His [1]: 4.7%
A450 as % of hEphA4-SEAP-His [2]: 4.6%
B1: humanized antibody No. 75 (antibody, human IgG1, kappa)
heavy: QVQLVQSGSELKKPGASVKVSCKASGYTFTDYSMHWVRQAPGQGLEWMGWINTETGEPTYAQGFTGRFVFSLDTSVSTAYLQISSLKAEDTAVYYCARIPLYYYGSRYWYFDVWGQGTTVTVSSASTKGPSVFPLAPSSKSTSGGTAALGCLVKDYFPEPVTVSWNSGALTSGVHTFPAVLQSSGLYSLSSVVTVPSSSLGTQTYICNVNHKPSNTKVDKRVEPKSCDKTHTCPPCPAPPAAAPSVFLFPPKPKDTLMISRTPEVTCVVVDVSHEDPEVQFNWYVDGVEVHNAKTKPREEQFNSTFRVVSVLTVVHQDWLNGKEYKCKVSNKGLPAPIEKTISKTKGQPREPQVYTLPPSREEMTKNQVSLTCLVKGFYPSDIAVEWESNGQPENNYKTTPPMLDSDGSFFLYSKLTVDKSRWQQGNVFSCSVMHEALHNHYTQKSLSLSPG
light: DIQMTQSPSSLSASVGDRVTITCRASENIYRNLAWYQQKPGKAPKLLVYAATNLADGVPSRFSGSGSGTDYTLTISSLQPEDFATYYCQHFWGTPWTFGQGTKVEIKRTVAAPSVFIFPPSDEQLKSGTASVVCLLNNFYPREAKVQWKVDNALQSGNSQESVTEQDSKDSTYSLSSTLTLSKADYEKHKVYACEVTHQGLSSPVTKSFNRGEC
notes: constant region: human IgG1 CH1 and hinge, human IgG2 CH2 and CH3 with V234A, G237A, no C-terminal Lys; human Ig kappa; also called L1-4/HA1

A450 as % of hEphA4-SEAP-His [1]: 5.2%
A450 as % of hEphA4-SEAP-His [2]: 5.4%
B2: humanized antibody No. 140 (antibody, human IgG2)
heavy: QVQLVQSGSELKKPGASVKVSCKASGYTFTDYSMHWVRQAPGQGLKWMGWINTETGEPTYAQGFTGRFVFSLDTSVSTAYLQISSLKAEDTAVYYCARIPLYYYGSRYWYFDVWGQGTTVTVSSASTKGPSVFPLAPSSRSTSESTAALGCLVKDYFPEPVTVSWNSGALTSGVHTFPAVLQSSGLYSLSSVVTVPSSNFGTQTYTCNVDHKPSNTKVDKTVERKSCVECPPCPAPPAAAPSVFLFPPKPKDTLMISRTPEVTCVVVDVSHEDPEVQFNWYVDGVEVHNAKTKPREEQFNSTFRVVSVLTVVHQDWLNGKEYKCKVSNKGLPAPIEKTISKTKGQPREPQVYTLPPSREEMTKNQVSLTCLVKGFYPSDIAVEWESNGQPENNYKTTPPMLDSDGSFFLYSKLTVDKSRWQQGNVFSCSVMHEALHNHYTQKSLSLSPG
light: B1 light
notes: human Ig kappa; also called L1-4/HA2

A450 as % of hEphA4-SEAP-His [1]: 5.3%
A450 as % of hEphA4-SEAP-His [2]: 5.5%
B3: humanized antibody No. 87 (antibody, human IgG1, kappa)
heavy: B1 heavy
light: B1 light with K45Q, V48L
notes: human Ig kappa; also called L1-6/HA1

A450 as % of hEphA4-SEAP-His [1]: 6.4%
A450 as % of hEphA4-SEAP-His [2]: 6.6%
B4: humanized antibody No. 92 (antibody, human IgG1, kappa)
heavy: B1 heavy with V2I, E46K, Q62D, G63D, T65K
light: B1 light with K45Q, V48L
notes: human Ig kappa; also called L1-6/HK4

A450 as % of hEphA4-SEAP-His [1]: 5%
A450 as % of hEphA4-SEAP-His [2]: 5.1%
B5: humanized antibody No. 78 (antibody, human IgG1, kappa)
heavy: B1 heavy with E46K, Q62D, G63D, T65K
light: B1 light
notes: human Ig kappa; also called L1-4/HK2

A450 as % of hEphA4-SEAP-His [1]: 6%
A450 as % of hEphA4-SEAP-His [2]: 6.1%
B6: humanized antibody No. 88 (antibody, human IgG1, kappa)
heavy: B1 heavy with E46K
light: B1 light with K45Q, V48L
notes: human Ig kappa; also called L1-6/HA2

A450 as % of hEphA4-SEAP-His [1]: 5.5%
A450 as % of hEphA4-SEAP-His [2]: 5.7%
B7: humanized antibody No. 142 (antibody, human IgG2)
heavy: B2 heavy with Q62D, G63D, T65K
light: B1 light
notes: as for B5

A450 as % of hEphA4-SEAP-His [1]: 4.9%
A450 as % of hEphA4-SEAP-His [2]: 5%
B8: humanized antibody No. 90 (antibody, human IgG1, kappa)
heavy: B1 heavy with Q62D, G63D, T65K
light: B1 light with K45Q, V48L
notes: human Ig kappa; also called L1-6/HK1

A450 as % of hEphA4-SEAP-His [1]: 4.9%
A450 as % of hEphA4-SEAP-His [2]: 5.2%
B9: humanized antibody No. 138 (antibody, human IgG2)
heavy: B2 heavy with V2I
light: B1 light
notes: human Ig kappa; also called L1-4/HA4

A450 as % of hEphA4-SEAP-His [1]: 5.5%
A450 as % of hEphA4-SEAP-His [2]: 5.7%
B10: humanized antibody No. 139 (antibody, human IgG2)
heavy: B2 heavy with K46E
light: B1 light
notes: human Ig kappa; also called L1-4/HA1

A450 as % of hEphA4-SEAP-His [1]: 5.3%
A450 as % of hEphA4-SEAP-His [2]: 5.4%
B11: humanized antibody No. 141 (antibody, human IgG2)
heavy: B2 heavy with K46E, Q62D, G63D, T65K
light: B1 light
notes: human Ig kappa; also called L1-4/HK1

A450 as % of hEphA4-SEAP-His [1]: 5.6%
A450 as % of hEphA4-SEAP-His [2]: 6.2%
B12: humanized antibody No. 91 (antibody, human IgG1, kappa)
heavy: B1 heavy with E46K, Q62D, G63D, T65K
light: B1 light with K45Q, V48L
notes: human Ig kappa; also called L1-6/HK2

A450 as % of hEphA4-SEAP-His [1]: 5.4%
A450 as % of hEphA4-SEAP-His [2]: 5.7%
B13: humanized antibody No. 82 (antibody, human IgG1, kappa)
heavy: B1 heavy with E46K
light: B1 light with V48L, P80S
notes: human Ig kappa; also called L1-5/HA2

A450 as % of hEphA4-SEAP-His [1]: 4.8%
A450 as % of hEphA4-SEAP-His [2]: 5.2%
B14: humanized antibody No. 85 (antibody, human IgG1, kappa)
heavy: B1 heavy with E46K, Q62D, G63D, T65K
light: B1 light with V48L, P80S
notes: human Ig kappa; also called L1-5/HK2

A450 as % of hEphA4-SEAP-His [1]: 5.6%
A450 as % of hEphA4-SEAP-His [2]: 5.7%
B15: humanized antibody No. 144 (antibody, human IgG2)
heavy: B2 heavy with K46E, Q62D, G63D, T65K
light: B1 light with K45Q, V48L
notes: as for B8

A450 as % of hEphA4-SEAP-His [1]: 5.6%
A450 as % of hEphA4-SEAP-His [2]: 5.8%
B16: humanized antibody No. 86 (antibody, human IgG1, kappa)
heavy: B1 heavy with V2I, E46K, Q62D, G63D, T65K
light: B1 light with V48L, P80S
notes: human Ig kappa; also called L1-5/HK4

A450 as % of hEphA4-SEAP-His [1]: 4.8%
A450 as % of hEphA4-SEAP-His [2]: 5.4%
B17: humanized antibody No. 84 (antibody, human IgG1, kappa)
heavy: B1 heavy with Q62D, G63D, T65K
light: B1 light with V48L, P80S
notes: human Ig kappa; also called L1-5/HK1

A450 as % of hEphA4-SEAP-His [1]: 5.4%
A450 as % of hEphA4-SEAP-His [2]: 5.8%
B18: humanized antibody No. 89 (antibody, human IgG1, kappa)
heavy: B1 heavy with V2I, E46K
light: B1 light with K45Q, V48L
notes: human Ig kappa; also called L1-6/HA4

A450 as % of hEphA4-SEAP-His [1]: 5.8%
A450 as % of hEphA4-SEAP-His [2]: 5.9%
B19: humanized antibody No. 143 (antibody, human IgG2)
heavy: B2 heavy with V2I, Q62D, G63D, T65K
light: B1 light
notes: human Ig kappa; also called L1-4/HK4

A450 as % of hEphA4-SEAP-His [1]: 5.5%
A450 as % of hEphA4-SEAP-His [2]: 5.7%
B20: humanized antibody No. 83 (antibody, human IgG1, kappa)
heavy: B1 heavy with V2I, E46K
light: B1 light with V48L, P80S
notes: human Ig kappa; also called L1-5/HA4

A450 as % of hEphA4-SEAP-His [1]: 4.3%
A450 as % of hEphA4-SEAP-His [2]: 4.5%
B21: humanized antibody No. 77 (antibody, human IgG1, kappa)
heavy: B1 heavy with Q62D, G63D, T65K
light: B1 light
notes: as for B11

A450 as % of hEphA4-SEAP-His [1]: 6.3%
A450 as % of hEphA4-SEAP-His [2]: 6.7%
B22: humanized antibody No. 145 (antibody, human IgG2)
heavy: B2 heavy with Q62D, G63D, T65K
light: B1 light with V48L, P80S
notes: as for B14

A450 as % of hEphA4-SEAP-His [1]: 5.2%
A450 as % of hEphA4-SEAP-His [2]: 5%
B23: humanized antibody No. 81 (antibody, human IgG1, kappa)
heavy: B1 heavy
light: B1 light with V48L, P80S
notes: human Ig kappa; also called L1-5/HA1
